Target: T1, human TNFR2-Fc fusion protein (human, UniProt P20333 23-257)
T1 construct: not shown: Fc part
T1 sequence (looked up): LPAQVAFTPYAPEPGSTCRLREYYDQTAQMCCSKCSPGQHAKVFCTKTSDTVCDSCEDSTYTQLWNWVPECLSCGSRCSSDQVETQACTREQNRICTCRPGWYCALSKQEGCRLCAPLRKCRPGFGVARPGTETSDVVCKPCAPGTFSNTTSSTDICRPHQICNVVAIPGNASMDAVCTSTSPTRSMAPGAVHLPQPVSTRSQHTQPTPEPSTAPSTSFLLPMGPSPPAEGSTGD
Assay: selection from a phage display scFv library on human TNFR2-Fc

B1: human TNFR2-specific monoclonal antibody E4 (antibody, V domains shown)
VH: QITLKESGPTLVKPTQTLTLTCTFSGFSLTTSGVGVGWIRQPPGKALEWLALIYWDDDKRYSPSLKSRLTITKDTSKNQVVLTMTNMDPVDTATYYCAHLDGSGSLDYWGQGTLVTVSS
VL: QSVLTQPPSASGTPGQRVTISCSGSTSNIGRNSVNWYSHLPGAAPKLLISGNDQRPSGVPDRFSGSKSDNTASLTVSGLQAEDEAHYYCSSSAANLGVFGGGTKLTVLG
binding result: binds
